Measurements: patent US20220033501A1 (SHANGHAI PHARMAEXPLORER, published 2022)

T1: human TIM-3 on CHOK1 stable cell line (CHOK1-hTIM-3) (human, UniProt Q8TDQ0 22-301)
T1 sequence: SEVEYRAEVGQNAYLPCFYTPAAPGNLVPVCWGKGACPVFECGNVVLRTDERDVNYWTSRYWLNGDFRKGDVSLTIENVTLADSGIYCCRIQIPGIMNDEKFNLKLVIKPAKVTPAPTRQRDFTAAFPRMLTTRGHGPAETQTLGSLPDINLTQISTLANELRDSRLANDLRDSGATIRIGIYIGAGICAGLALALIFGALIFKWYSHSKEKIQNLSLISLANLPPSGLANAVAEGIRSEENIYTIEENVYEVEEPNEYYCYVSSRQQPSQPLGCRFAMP

T2: monkey TIM-3 on CHOK1 stable cell line (CHOK1-cTIM-3) (monkey)
T2 chain: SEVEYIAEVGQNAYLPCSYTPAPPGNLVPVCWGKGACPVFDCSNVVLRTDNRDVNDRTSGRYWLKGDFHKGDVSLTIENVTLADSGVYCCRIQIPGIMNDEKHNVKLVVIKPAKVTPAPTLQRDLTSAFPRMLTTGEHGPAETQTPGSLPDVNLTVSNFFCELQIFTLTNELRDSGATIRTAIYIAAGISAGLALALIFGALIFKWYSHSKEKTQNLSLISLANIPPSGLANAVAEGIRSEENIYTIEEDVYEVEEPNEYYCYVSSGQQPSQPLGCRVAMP

T3: human TIM-3 extracellular domain protein with hFc tag (hTIM-3-hFc) (human, UniProt Q8TDQ0 22-200)
T3 construct: not shown: human IgG Fc fragment (hFc) of the pCpC vector
T3 sequence: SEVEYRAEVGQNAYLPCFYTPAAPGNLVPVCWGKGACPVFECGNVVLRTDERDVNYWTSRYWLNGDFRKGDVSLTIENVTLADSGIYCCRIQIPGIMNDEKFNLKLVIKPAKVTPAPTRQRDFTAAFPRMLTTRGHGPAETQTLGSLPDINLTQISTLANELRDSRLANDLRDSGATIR

T4: monkey TIM-3 extracellular domain protein with hFc tag (cTIM-3-hFc) (monkey)
T4 construct: not shown: human IgG Fc fragment (hFc) of the pCpC vector
T4 chain: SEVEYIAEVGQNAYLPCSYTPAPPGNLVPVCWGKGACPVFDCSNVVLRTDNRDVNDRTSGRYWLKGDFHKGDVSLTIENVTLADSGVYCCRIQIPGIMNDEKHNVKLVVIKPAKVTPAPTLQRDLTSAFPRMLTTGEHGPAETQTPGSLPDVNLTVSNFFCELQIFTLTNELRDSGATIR


Assays:
[1] = biological target: T1, human TIM-3 on CHOK1 stable cell line …; assay: FACS, CHOK1-hTIM-3 cells, 1.6 nM antibody
[2] = biological target: T2, monkey TIM-3 on CHOK1 stable cell line …; assay: FACS, CHOK1-cTIM-3 cells, 0.32 nM antibody
[3] = biological target: T2, monkey TIM-3 on CHOK1 stable cell line …; assay: FACS, CHOK1-cTIM-3 cells, 0.064 nM antibody
[4] = biological target: T3, human TIM-3 extracellular domain …; assay: ELISA, coated human TIM-3 ECD protein, 0.0007 nM antibody
[5] = biological target: T3, human TIM-3 extracellular domain …; assay: ELISA, coated human TIM-3 ECD protein, 0.6667 nM antibody
[6] = biological target: T4, monkey TIM-3 extracellular domain …; assay: ELISA, coated monkey TIM-3 ECD protein, 0.0667 nM antibody

Mean fluorescence intensity [1] | Mean fluorescence intensity [2] | Mean fluorescence intensity [3] | OD450 [4] | OD450 [5] | OD450 [6] | Binder
212 | 109 | 35.4 | 0.11 | 3.11 | 1.71 | 34B6D8 fully human TIM-3 antibody (human IgG4, kappa) (antibody, V domains shown) VH: EVQLVESGGGLVQPGGSLRLSCAASGFTFSTYWMTWVRQAPGKRLEWVANIKQGGGDKYYVDSVKGRFTISTDNAKNSLYLQMNSLRAEDTAVYYCARGSNWFDPWGQGTLVTVSS VL: EIVMTQSPATLSMSPGERATLSCRASQSVYDNLAWYQQKPGQAPRLLIYGASTRATGIPARFSGSGSGTEFTLTISSLQSEDFALYYCQQYTHWPITFGQGTRLEIK
191 | 132 | 42.3 | 0.1 | 3.01 | 1.37 | 39E5H1 fully human TIM-3 antibody (human IgG4, kappa) (antibody, V domains shown) VH: EVQLVESGGGLVQPGGSLRLSCAASGFTFSSYWMSWVRQAPGKGLEWVANIKRGGSERYYVDSVKGRFTISGDNAKNSVYLQMNSLRAEDTAVYYCARGSNWFDPWGQGTLVTVSS VL: ETVMTQSPAILSVSPGERATLSCRASQSVYSNLAWYQQKLGQAPRLLIYDASTRATGIPARFSGSGSGTEFTLTISSLQSEDFAVYYCQQYNNWPITFGQGTRLEIK
